Results published in article PMC4163024 (Structure (London, England : 1993), 2014).

Experiments:
[1] = biological target: the molecule itself; assay: crystal structure
[2] = biological target: T1, recombinant DcR3-Ig (human, UniProt O95407 30-300); assay: SPR
T1 sequence (looked up): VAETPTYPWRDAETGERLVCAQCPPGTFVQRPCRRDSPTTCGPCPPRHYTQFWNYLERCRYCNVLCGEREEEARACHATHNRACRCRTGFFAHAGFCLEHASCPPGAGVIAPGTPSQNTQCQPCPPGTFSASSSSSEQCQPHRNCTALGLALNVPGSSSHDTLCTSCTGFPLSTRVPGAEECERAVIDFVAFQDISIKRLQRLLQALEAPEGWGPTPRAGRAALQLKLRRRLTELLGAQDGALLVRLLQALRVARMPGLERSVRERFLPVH

[3] = biological target: recombinant LTβR-Ig (UniProt P36941 31-227); assay: SPR
Sequence of recombinant LTβR-Ig (P36941 31-227): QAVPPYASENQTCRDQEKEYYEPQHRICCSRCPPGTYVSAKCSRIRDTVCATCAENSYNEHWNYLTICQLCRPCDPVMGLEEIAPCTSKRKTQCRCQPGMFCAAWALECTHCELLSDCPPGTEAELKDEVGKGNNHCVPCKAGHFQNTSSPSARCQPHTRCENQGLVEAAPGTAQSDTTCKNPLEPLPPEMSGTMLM

B1: Soluble LIGHT (residues L83-V240), wild type (ligand, human, UniProt O43557 83-240, looked up)
chain: LIQERRSHEVNPAAHLTGANSSLTGSGGPLLWETQLGLAFLRGLSYHDGALVVTKAGYYYIYSKVQLGGVGCPLGLASTITHGLYKRTPRYPEELELLVSQQSPCGRATSSSRVWWDSSFLGGVVHLEAGEKVVVRVLDERLVRLRDGTRSYFGAFMV
B1 was tested, and the “stoichiometry N” value [1] was 3, the Kd [2] was 16.7 ± 0.3 nM and the Kd [3] was 11.2 ± 0.6 nM.

B2: LIGHT mutant 1 (GH loop 226-231 replaced by the TL1A loop) (ligand, human)
chain: LIQERRSHEVNPAAHLTGANSSLTGSGGPLLWETQLGLAFLRGLSYHDGALVVTKAGYYYIYSKVQLGGVGCPLGLASTITHGLYKRTPRYPEELELLVSQQSPCGRATSSSRVWWDSSFLGGVVHLEAGEKVVVRVLDERLVDYTKEDRSYFGAFMV
B2 showed a Kd [2] of 36 ± 1.8 nM and a Kd [3] of 21 ± 3.3 nM.

B3: LIGHT mutant 2 (EF loop 195-198 replaced by the TL1A loop) (ligand, human)
chain: LIQERRSHEVNPAAHLTGANSSLTGSGGPLLWETQLGLAFLRGLSYHDGALVVTKAGYYYIYSKVQLGGVGCPLGLASTITHGLYKRTPRYPEELELLVSQQSPCGRATSSSSNWFDSSFLGGVVHLEAGEKVVVRVLDERLVRLRDGTRSYFGAFMV
B3 gave a Kd [2] of 153 ± 54 nM and a Kd [3] of 17.2 ± 14 nM.
